This is an account of results in the RNAGym collection of RNA variant scans (doi:10.7554/elife.90254).

The chains are these.
B1: LINE1-mini (parent)
chain: GGCAGAGCUCAACACAGCGUGGCAAAGUGGCUGUGGCUAGACUGCC

The variants in this data set derive from B1. Description: self-cleavage, relative activity (ratio to wild type); higher = more cleavage; in vitro, sequencing; the parent is a self-cleaving ribozyme.
Regarding GGUAGAGCUCAACAUAGCGUGGCAAAGUGGCUGUGGCUAGACUGCC [C3U C15U], the self-cleavage worked out at 0.32.

For the variant GGUAGAGCUCAACAGAGCGUGGCAAAGUGGCUGUGGCUAGACUGCC [C3U C15G], the self-cleavage came to 0.08.

For the variant GGGAGAGCUCAACACAGCGUGGCAAAGUGGCUGUGGCUAGACUACC [C3G G44A], the self-cleavage came out at 0.35.

Consider GGGAGAGCUCAACACAGCGUGGCAAAGUGGCUGUGGCUAGACUCCC [C3G G44C], for which the self-cleavage is 0.93.

Turning to GGGAGAGCUCAACACAGCGUGGCAAAGUGGCUGUGGCUAGACUUCC [C3G G44U], the self-cleavage is 1.21.

GGUAGAGGUCAACACAGCGUGGCAAAGUGGCUGUGGCUAGACUGCC [C3U C8G]: the self-cleavage turned out to be 0.15.

As to GGUAGAGUUCAACACAGCGUGGCAAAGUGGCUGUGGCUAGACUGCC [C3U C8U], the self-cleavage stood at 0.71.

Consider GGUAGAGAUCAACACAGCGUGGCAAAGUGGCUGUGGCUAGACUGCC [C3U C8A], for which the self-cleavage was 0.38.

For GGUAGAGCUCAACUCAGCGUGGCAAAGUGGCUGUGGCUAGACUGCC [C3U A14U], the self-cleavage was 0.19.

With GGUAGAGCUCAACCCAGCGUGGCAAAGUGGCUGUGGCUAGACUGCC [C3U A14C], the self-cleavage is 0.08.

In the case of GGUAGAGCUCAACGCAGCGUGGCAAAGUGGCUGUGGCUAGACUGCC [C3U A14G], the self-cleavage is 0.34.

With GGUCGAGCUCAACACAGCGUGGCAAAGUGGCUGUGGCUAGACUGCC [C3U A4C], the self-cleavage came out at 0.26.

As to GGUGGAGCUCAACACAGCGUGGCAAAGUGGCUGUGGCUAGACUGCC [C3U A4G], the self-cleavage worked out at 0.31.

Take GGUUGAGCUCAACACAGCGUGGCAAAGUGGCUGUGGCUAGACUGCC [C3U A4U]: the self-cleavage amounted to 0.15.

For the variant GGGAGAGCUCAACACAGCGUGGCAAAGUGGCUGUGGCGAGACUGCC [C3G U38G], the self-cleavage turned out to be 0.05.

As to GGGAGAGCUCAACACAGCGUGGCAAAGUGGCUGUGGCCAGACUGCC [C3G U38C], the self-cleavage is 0.22.

Regarding GGGAGAGCUCAACACAGCGUGGCAAAGUGGCUGUGGCAAGACUGCC [C3G U38A], the self-cleavage worked out at 0.18.

Consider GGUAGUGCUCAACACAGCGUGGCAAAGUGGCUGUGGCUAGACUGCC [C3U A6U], for which the self-cleavage was 0.38.

For the variant GGUAGGGCUCAACACAGCGUGGCAAAGUGGCUGUGGCUAGACUGCC [C3U A6G], the self-cleavage worked out at 0.09.

In the case of GGUAGCGCUCAACACAGCGUGGCAAAGUGGCUGUGGCUAGACUGCC [C3U A6C], the self-cleavage amounted to 0.5.

On to GGUAGAGCUCAACACAGCGUGGCAAAGUGGCUGUGGCUGGACUGCC [C3U A39G], for which the self-cleavage stood at 0.2.

Consider GGUAGAGCUCAACACAGCGUGGCAAAGUGGCUGUGGCUUGACUGCC [C3U A39U], for which the self-cleavage was 0.38.

Turning to GGUAGAGCUCAACACAGCGUGGCAAAGUGGCUGUGGCUCGACUGCC [C3U A39C], the self-cleavage was 0.19.

With GGGAGACCUCAACACAGCGUGGCAAAGUGGCUGUGGCUAGACUGCC [C3G G7C], the self-cleavage is 0.05.

Take GGGAGAACUCAACACAGCGUGGCAAAGUGGCUGUGGCUAGACUGCC [C3G G7A]: the self-cleavage is 0.49.

Consider GGGAGAUCUCAACACAGCGUGGCAAAGUGGCUGUGGCUAGACUGCC [C3G G7U], for which the self-cleavage came out at 0.22.

Regarding GGGAGAGCUCAACACAGCGUGGCAAAGUAGCUGUGGCUAGACUGCC [C3G G29A], the self-cleavage stood at 0.38.

As for GGGAGAGCUCAACACAGCGUGGCAAAGUUGCUGUGGCUAGACUGCC [C3G G29U], the self-cleavage was 0.55.

In the case of GGGAGAGCUCAACACAGCGUGGCAAAGUCGCUGUGGCUAGACUGCC [C3G G29C], the self-cleavage is 0.43.

Regarding GGGAGAGCUCAACACAGCGUGGCAAAGUGGCUGGGGCUAGACUGCC [C3G U34G], the self-cleavage was 0.08.

In the case of GGGAGAGCUCAACACAGCGUGGCAAAGUGGCUGAGGCUAGACUGCC [C3G U34A], the self-cleavage came to 0.08.

GGGAGAGCUCAACACAGCGUGGCAAAGUGGCUGCGGCUAGACUGCC [C3G U34C]: the self-cleavage was 0.1.

With GGUAGAGCUAAACACAGCGUGGCAAAGUGGCUGUGGCUAGACUGCC [C3U C10A], the self-cleavage was 0.05.

Regarding GGUAGAGCUGAACACAGCGUGGCAAAGUGGCUGUGGCUAGACUGCC [C3U C10G], the self-cleavage was found to be 0.03.

Regarding GGUAGAGCUUAACACAGCGUGGCAAAGUGGCUGUGGCUAGACUGCC [C3U C10U], the self-cleavage is 0.15.

In the case of GGGAGAGCCCAACACAGCGUGGCAAAGUGGCUGUGGCUAGACUGCC [C3G U9C], the self-cleavage is 0.03.

For GGGAGAGCACAACACAGCGUGGCAAAGUGGCUGUGGCUAGACUGCC [C3G U9A], the self-cleavage amounted to 0.27.

GGGAGAGCGCAACACAGCGUGGCAAAGUGGCUGUGGCUAGACUGCC [C3G U9G]: the self-cleavage came out at 0.3.

As for GGUAGAGCUCAACACAGCGUGGCACAGUGGCUGUGGCUAGACUGCC [C3U A25C], the self-cleavage came out at 0.52.

Turning to GGUAGAGCUCAACACAGCGUGGCAUAGUGGCUGUGGCUAGACUGCC [C3U A25U], the self-cleavage is 0.52.

For GGUAGAGCUCAACACAGCGUGGCAGAGUGGCUGUGGCUAGACUGCC [C3U A25G], the self-cleavage turned out to be 0.27.

Consider GGGAGAGCUCAACACAGCGUGGCAAAGUGGCUGUCGCUAGACUGCC [C3G G35C], for which the self-cleavage is 0.13.

Take GGGAGAGCUCAACACAGCGUGGCAAAGUGGCUGUUGCUAGACUGCC [C3G G35U]: the self-cleavage worked out at 0.28.

Take GGGAGAGCUCAACACAGCGUGGCAAAGUGGCUGUAGCUAGACUGCC [C3G G35A]: the self-cleavage stood at 0.23.

In the case of GGGAGAGCUCAACACAGCGAGGCAAAGUGGCUGUGGCUAGACUGCC [C3G U20A], the self-cleavage is 0.35.

Turning to GGGAGAGCUCAACACAGCGGGGCAAAGUGGCUGUGGCUAGACUGCC [C3G U20G], the self-cleavage was 0.41.

As to GGGAGAGCUCAACACAGCGCGGCAAAGUGGCUGUGGCUAGACUGCC [C3G U20C], the self-cleavage was 0.41.

As for GGUAGAGCUCAACACAGCGUGGGAAAGUGGCUGUGGCUAGACUGCC [C3U C23G], the self-cleavage stood at 0.46.

As to GGUAGAGCUCAACACAGCGUGGAAAAGUGGCUGUGGCUAGACUGCC [C3U C23A], the self-cleavage turned out to be 0.55.

On to GGUAGAGCUCAACACAGCGUGGUAAAGUGGCUGUGGCUAGACUGCC [C3U C23U], for which the self-cleavage stood at 0.38.

Regarding GGUAGAGCUCAAUACAGCGUGGCAAAGUGGCUGUGGCUAGACUGCC [C3U C13U], the self-cleavage is 0.23.

Regarding GGUAGAGCUCAAAACAGCGUGGCAAAGUGGCUGUGGCUAGACUGCC [C3U C13A], the self-cleavage is 0.15.

For GGUAGAGCUCAAGACAGCGUGGCAAAGUGGCUGUGGCUAGACUGCC [C3U C13G], the self-cleavage worked out at 0.14.

For GGGAGAGCUCAACACAGCGUUGCAAAGUGGCUGUGGCUAGACUGCC [C3G G21U], the self-cleavage is 0.48.

In the case of GGGAGAGCUCAACACAGCGUCGCAAAGUGGCUGUGGCUAGACUGCC [C3G G21C], the self-cleavage stood at 0.41.

For GGGAGAGCUCAACACAGCGUAGCAAAGUGGCUGUGGCUAGACUGCC [C3G G21A], the self-cleavage is 1.1.
